According to patent publication US6656471:

Target: HLA class I (human)
Assay: cell-based or functional assay

W6/32, the class I-specific antibody, from hybridoma culture supernatants (ATCC: HB95)
reduction in HIV-1 envelope-specific CTL activity (PBMCs from LB, E:T 25:1, 1:4 dilution of W6/32 supernatant): 73% | specific lysis value with W6/32 (E:T 25:1): 6.2% | specific lysis value without W6/32 (E:T 25:1): 23.2%
